Measurements: patent US20250002565A1 (published 2025)
No end group written: not given here.

Key:
[1] = target: T1, 15-mer peptide LGIWGCSGKLICTTT (SEQ ID NO:1) (HIV, not fully specified; cysteine pairing not given here); experiment: indirect ELISA; 15-mer peptide coated 1 ug/ml in DTT; antibody at 12 ng/ml
T1 construct: also called U1731DB060-1; U173DB060-1
T1 peptide: LGIWGCSGKLICTTT
Description: (§1) In a first study, an ELISA was prepared in which the linear (reduced) form of the 15-mer peptide […] (SEQ ID NO:1) was coated onto a solid support and contacted with various concentrations of peptides #1, #2, #3, #4, #5, #6, #7, #8, #9Q, #10Q, and #11Q. A mouse, anti-human IgG Fc-HRP at 0.2 μg/ml was used as a secondary antibody.

[2] = target: T1, 15-mer peptide LGIWGCSGKLICTTT (SEQ ID …); experiment: indirect ELISA; 15-mer peptide coated 1 ug/ml in DTT; antibody at 111 ng/ml
Description: as §1

[3] = target: T1, 15-mer peptide LGIWGCSGKLICTTT (SEQ ID …); experiment: indirect ELISA; 15-mer peptide coated 1 ug/ml in DTT; antibody at 37 ng/ml
Description: as §1

[4] = target: T1, 15-mer peptide LGIWGCSGKLICTTT (SEQ ID …); experiment: indirect ELISA; 15-mer peptide coated 1 ug/ml in DTT; negative control well of this row (not explained)
Description: as §1

[5] = target: T1, 15-mer peptide LGIWGCSGKLICTTT (SEQ ID …); experiment: indirect ELISA; 15-mer peptide coated 1 ug/ml in DTT; antibody at 333 ng/ml
Description: as §1

[6] = target: T1, 15-mer peptide LGIWGCSGKLICTTT (SEQ ID …); experiment: indirect ELISA; 15-mer peptide coated 1 ug/ml in DTT; antibody at 1000 ng/ml
Description: as §1

recombinant HIV gp41 [7] = target: T2, recombinant HIV gp41 (HIV); experiment: indirect ELISA; gp41 coated 2 µg/ml in DTT (by the table's columns; paragraph 121 calls it the value against SEQ ID NO:1)
T2 construct: also called U7267DC080-1; U1916DG190-1
Description: (§2) Variants #9V, #10V, and #11V were prepared with substitutions in the heavy chain. These variants comprised amino acids sequences nearly identical to #9Q, #10Q, and #11Q, respectively, with the only distinction being a substitution of glutamine (Q) for valine (V) at the 5 position of the heavy chain. Exemplary peptides #10Q and #10V were tested in indirect ELISA assays to determine the EC50 values for binding to the epitope having the amino acid sequence of SEQ ID NO:1 and HIV gp41. The results of these studies are shown in Tables 6 and 7 below, as well as FIGS. 2 and 3. Target proteins U7267DC080-1 and U173DB060-1 correspond to recombinant gp41 and the 15-mer peptide […] (SEQ ID NO:1), respectively.

[8] = target: T3, gp41 on the membrane of HIV-infected CD4+ cells (HIV); experiment: FACS on HIV-infected CD4+ cells, presence of sCD4
T3 construct: whole, on cells; also called CD4 cell-surface gp41
Description: (§3) For the FACS binding studies, the CD4+ cells that were infected with HIV expressed HIV viral envelope proteins on the cell membrane surfaces, e.g., gp160=gp41 and gp 120. Binding of proteins #7, #10Q, and #10V was tested in both presence and absence of soluble CD4 (sCD4).

recombinant HIV gp41 [9] = target: T2, recombinant HIV gp41; experiment: indirect ELISA; gp41 coated 2 µg/ml in PBS
Description: as §2

[10] = target: gp41 of HIV isolate SF-162 (clade B clinical isolate) (HIV isolate SF-162, clade B); experiment: cell-based or functional assay
recombinant HIV gp41 [11] = target: T2, recombinant HIV gp41; experiment: GenScript binding assay, EC50 vs rgp41 (summary table; per first reading the same value as in Tables 6-8)
[12] = target: T3, gp41 on the membrane of HIV-infected …; experiment: FACS on HIV-infected CD4+ cells, absence of sCD4
Description: as §3

Row | Binder | ELISA OD [1] [OD] | ELISA OD [2] [OD] | ELISA OD [3] [OD] | ELISA OD (Neg. Cont.) [4] [OD] | ELISA OD [5] [OD] | ELISA OD [6] [OD] | EC50 (recombinant HIV gp41 [7]) [µg/mL] | Fluorescent (FACS) counts [8] [counts] | EC50 (recombinant HIV gp41 [9]) [µg/mL] | IC value vs SF 162 (µg/ml) in PBMC based in vitro assays [10] [µg/mL] | EC50 (recombinant HIV gp41 [11]) [µg/mL] | Fluorescent (FACS) counts [12] [counts]
1 | HIV-binding peptide #1 (antibody, human IgG1, kappa, V domains shown, Recombinant, fully human immunoglobulin; also called U1205DB020-1) VH: QVQLQESGGGVVQPGRSLRLSCAASGFTFSSYAIHWVRQAPGKGLEWVAVISYDGSNRYYADSVKGRFTISRDNSKNTLYLQMNSLRPEDTAVYYCARDRFSAVASTPTYHNYFYMDVWGKGTTVTVSS VL: DIQMTQSPSSLSASVGDRVTITCQASQDVNNYLAWYQQKPGQAPRLLIYDASNLETGVPSRFSGSGSGTDFTLTISSLQPEDLATYYCQQYDNTPYTFGQGTKLEIKR | 0.08 | 0.076 | 0.098 | 0.096 | 0.096 | 0.079 | – | – | – | – | – | –
2 | HIV-binding peptide #9Q (antibody, human IgG1, V domains shown) VH: QVQLQESGGGVVQPGRSLRLSCAASGFTFSSYAIHWVRQAPGKGLEWVAVISYDGSNRYYADSVKGRFTISRDNSKNTLYLQMNSLRPEDTAVYYCARDRFSAVASTPTYHNYFYMDVWGKGTTVTVSS | 0.111 | 0.171 | 0.122 | 0.105 | 0.322 | 0.745 | – | – | – | – | – | –
3 | HIV-binding peptide #10Q (antibody, V domains shown, also called antibody#10-5Q; U1205DB020-10) VH: QVQLQESGGGVVQPGRSLRLSCAASGFTFSSYAIHWVRQAPGKGLEWVAVISYDGSNRYYADSVKGRFTISRDNSKNTLYLQMNSLRPEDTAVYYCARDRFSAVASTPTYHNYFYMDVWGKGTTVTVSS | 0.14 | 0.377 | 0.209 | 0.084 | 0.863 | 1.71 | 5.54 | 110000 | 1.78 | 0.05 | 1.78 | 120000
4 | HIV-binding peptide #7 (antibody, human IgG1, kappa, V domains shown, also called U1205DB020-7) VH: QVQLQESGGGVVQPGRSLRLSCAASGFTFSSYAIHWVRQAPGKGLEWVAVISYDGSNRYYADSVKGRFTISRDNSKNTLYLQMNSLRPEDTAVYYCARDRFSAVASTPTYHNYFYMDVWGKGTTVTVSS VL: DIQMTQSPSSLSASVGDRVTITCQASQDVSNYLAWYQQKPGQAPRLLIYDASNLETGVPSRFSGSGSGTDFTLTISSLQPEDLATYYCQQYDNLPYTFGQGTKLEIKR | 0.096 | 0.084 | 0.098 | 0.088 | 0.092 | 0.09 | – | 25000 | – | 0.5 | 107 | 25900
5 | HIV-binding peptide #8 (antibody, human IgG1, kappa, V domains shown, Recombinant, fully human immunoglobulin; also called U1205DB020-8) VH: QVQLQESGGGVVQPGRSLRLSCAASGFTFSSYAIHWVRQAPGKGLEWVAVISYDGSNRYYADSVKGRFTISRDNSKNTLYLQMNSLRPEDTAVYYCARDRFSAVASTPTYHNYFYMDVWGKGTTVTVSS VL: DIQMTQSPSSLSASVGDRVTITCQASQDISNYLAWYQQKPGQAPRLLIYDASNLETGVPSRFSGSGSGTDFTLTISSLQPEDLATYYCQQYDNLPYTFGQGTKLEIKR | 0.094 | 0.1 | 0.089 | 0.088 | 0.073 | 0.076 | – | – | – | – | – | –
6 | HIV-binding peptide #6 (antibody, human IgG1, kappa, V domains shown, Recombinant, fully human immunoglobulin; also called U1205DB020-6) VH: QVQLQESGGGVVQPGRSLRLSCAASGFTFSSYAIHWVRQAPGKGLEWVAVISYDGSNRYYADSVKGRFTISRDNSKNTLYLQMNSLRPEDTAVYYCARDRFSAVASTPTYHNYFYMDVWGKGTTVTVSS VL: DIQMTQSPSSLSASVGDRVTITCQASQDISNYLAWYQQKPGQAPRLLIYDASNLETGVPSRFSGSGSGTDFTLTISSLQPEDLATYYCQQYDNTPYTFGQGTKLEIKR | 0.077 | 0.08 | 0.072 | 0.087 | 0.078 | 0.079 | – | – | – | – | – | –
7 | HIV-binding peptide #4 (antibody, human IgG1, kappa, V domains shown, Recombinant, fully human immunoglobulin; also called U1205DB020-4) VH: QVQLQESGGGVVQPGRSLRLSCAASGFTFSSYAIHWVRQAPGKGLEWVAVISYDGSNRYYADSVKGRFTISRDNSKNTLYLQMNSLRPEDTAVYYCARDRFSAVASTPTYHNYFYMDVWGKGTTVTVSS VL: DIQMTQSPSSLSASVGDRVTITCQASQDINNYLAWYQQKPGQAPRLLIYDASNLETGVPSRFSGSGSGTDFTLTISSLQPEDLATYYCQQYDNLPYTFGQGTKLEIKR | 0.073 | 0.073 | 0.077 | 0.091 | 0.079 | 0.07 | – | – | – | – | – | –
8 | HIV-binding peptide #2 (antibody, human IgG1, kappa, V domains shown, Recombinant, fully human immunoglobulin; also called U1205DB020-2) VH: QVQLQESGGGVVQPGRSLRLSCAASGFTFSSYAIHWVRQAPGKGLEWVAVISYDGSNRYYADSVKGRFTISRDNSKNTLYLQMNSLRPEDTAVYYCARDRFSAVASTPTYHNYFYMDVWGKGTTVTVSS VL: DIQMTQSPSSLSASVGDRVTITCQASQDINNYLAWYQQKPGQAPRLLIYDASNLETGVPSRFSGSGSGTDFTLTISSLQPEDLATYYCQQYDNTPYTFGQGTKLEIKR | 0.065 | 0.188 | 0.074 | 0.075 | 0.076 | 0.068 | – | – | – | – | – | –
9 | HIV-binding peptide #3 (antibody, human IgG1, kappa, V domains shown, Recombinant, fully human immunoglobulin; also called U1205DB020-3) VH: QVQLQESGGGVVQPGRSLRLSCAASGFTFSSYAIHWVRQAPGKGLEWVAVISYDGSNRYYADSVKGRFTISRDNSKNTLYLQMNSLRPEDTAVYYCARDRFSAVASTPTYHNYFYMDVWGKGTTVTVSS VL: DIQMTQSPSSLSASVGDRVTITCQASQDVNNYLAWYQQKPGQAPRLLIYDASNLETGVPSRFSGSGSGTDFTLTISSLQPEDLATYYCQQYDNLPYTFGQGTKLEIKR | 0.087 | 0.072 | 0.074 | 0.083 | 0.077 | 0.072 | – | – | – | – | – | –
10 | HIV-binding peptide #5 (antibody, human IgG1, kappa, V domains shown, Recombinant, fully human immunoglobulin; also called U1205DB020-5) VH: QVQLQESGGGVVQPGRSLRLSCAASGFTFSSYAIHWVRQAPGKGLEWVAVISYDGSNRYYADSVKGRFTISRDNSKNTLYLQMNSLRPEDTAVYYCARDRFSAVASTPTYHNYFYMDVWGKGTTVTVSS VL: DIQMTQSPSSLSASVGDRVTITCQASQDVSNYLAWYQQKPGQAPRLLIYDASNLETGVPSRFSGSGSGTDFTLTISSLQPEDLATYYCQQYDNTPYTFGQGTKLEIKR | 0.082 | 0.071 | 0.081 | 0.078 | 0.086 | 0.081 | – | – | – | – | – | –
11 | HIV-binding peptide #10V (antibody, V domains shown, differs from #10Q by Q to V at position 5 of the heavy chain; also called antibody#10-5V; U6323DD200-2) VH: QVQLVESGGGVVQPGRSLRLSCAASGFTFSSYAIHWVRQAPGKGLEWVAVISYDGSNRYYADSVKGRFTISRDNSKNTLYLQMNSLRPEDTAVYYCARDRFSAVASTPTYHNYFYMDVWGKGTTVTVSS | – | – | – | – | – | – | 4.59 | 29900 | 1.39 | 0.5 | 1.39 | 56600
12 | HIV-binding peptide #11Q (antibody, V domains shown, Heavy chain only with variant CH1/CH2 (hinge cysteines replaced by serines)) VH: QVQLQESGGGVVQPGRSLRLSCAASGFTFSSYAIHWVRQAPGKGLEWVAVISYDGSNRYYADSVKGRFTISRDNSKNTLYLQMNSLRPEDTAVYYCARDRFSAVASTPTYHNYFYMDVWGKGTTVTVSS | 0.092 | 0.127 | 0.119 | 0.104 | 0.241 | 0.441 | – | – | – | – | – | –
